Data: PMC8371082, “En route to dynamic life processes by SNARE-mediated fusion of polymer and hybrid membranes” (Nature Communications, 2021)

Biological target: T1, Syntaxin-1A (183-288) (Rattus norvegicus, UniProt P32851 183-288)
T1 construct: Syntaxin-1A, Rattus norvegicus, residues 183-288
Assay: complex assembly from purified proteins, isolated by ion-exchange chromatography; truncated syb-2, syntaxin-1A and SNAP-25a mixed at 1.5:1:1 molar ratio, incubated at 4 °C overnight, complex purified by ion-exchange chromatography in the presence of CHAPS
Conditions: both partners purified

T1 sequence (P32851 183-288): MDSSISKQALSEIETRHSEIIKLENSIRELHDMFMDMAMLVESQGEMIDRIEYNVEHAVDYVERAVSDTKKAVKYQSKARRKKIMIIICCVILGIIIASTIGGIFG

B1: Truncated synaptobrevin-2 (49-96) (domain or fragment, Rattus norvegicus, UniProt P63045 49-96, looked up)
chain: NVDKVLERDQKLSELDDRADALQAGASQFETSAAKLKRKYWWKNLKMM
notes: Synaptobrevin-2 (VAMP2), Rattus norvegicus, residues 49-96; also called truncated syb-2; C-terminal syb fragment
- binding result: binds
